# Reference: patent US20230390363A1, “Compounds, Compositions and Methods of Use to Treat Spinal Fusions” (PURDUE RESEARCH FOUNDATION, priority 2020, published 2023)
# Non-standard residues stand in square brackets, D forms with d. Aib = CC(C)(N)C(=O)O
# B1: H-AVSEHQLLHDKGKSIQDLRRRELLEKLLxKLHTAEIRATSEVSPNSeeeeeeeeeeeeeeeeeeee (peptide)
# chain: H-AVSEHQLLHDKGKSIQDLRRRELLEKLL[Aib]KLHTAEIRATSEVSPNS[dE][dE][dE][dE][dE][dE][dE][dE][dE][dE][dE][dE][dE][dE][dE][dE][dE][dE][dE][dE]
# notes: PTHrP fragment conjugated at its C-terminus to a linear peptide of 20 D-glutamic acid residues; x=Aib, e=D-glutamic acid
# Test system: posterolateral spinal fusion of L4-L5
# Assay: Posterolateral spinal fusion of L4-L5 in rats: micro-CT and manual palpitation after treatment
# Format: in vivo, rat
# Conditions: for spinal fusion (micro-CT, manual palpitation): plain collagen matrix, rhBMP-2 10 μg soaked in matrix
# Method: FIG. 6, panels A-C show three-dimensional reconstructions of micro-CT scans of a posterolateral spinal fusion of L4-L5 in a rat treated with a plain collagen matrix and a compound of SEQ ID NO: 2 for eight weeks. In some embodiments, SEQ ID NO: 2 was dosed (e.g., in rodents) at 33 nmol/kg twice a week. […] In some embodiments, the collagen matrix was applied during surgery. […] In some embodiments, phosphate-buffered saline was dosed at a 1× concentration twice a week in the same volume as SEQ ID NO: 2. […] Scores were assigned 0-5 on osteointegration, density, and bridging of both bilateral spinal fusions in microCT scans of the rats as determined by an individual who was blinded to the treatment and reviewed random samples. The total score is the sum of all five scores combined. […] The density of the scan was assigned based on a standard curve generated by a phantom hydroxyapatite standard set. A bilateral posterolateral lumbar spinal fusion was performed under aseptic conditions using isoflurane as an anesthetic. The skin surrounding the L2-L6 region on the back was shaved and disinfected using a Betadine solution followed by an alcohol pad. A 3-cm incision extending from the L3 to L6 vertebrae was made in the skin in this prepared area. The muscle on the vertebral body between the spinous process and the transverses process was bluntly dissected away from the vertebral body to expose the transverses processes. Using a low-speed burr, the L4 and L5 transverse processes cortical bone was removed in addition to the facia joint between the two vertebrae. The burr removed the surface layer of the bone. This process is known as decortication and was done to allow for direct regeneration of bone tissue. Following decortication, a drug-soaked collagen sponge was placed on each side of the vertebrae. A 5×7.5-mm collagen sponge was soaked to saturation in the drugs for 10 minutes. The collagen sponge (RCM6 membranes from ACE surgical supplies) served as a scaffold to aid in the fusion of the vertebrae. Mineralized collagen scaffolds (supplied by Houston Methodist, Houston, TX) and collagen scaffolds wrapped around anorganic bone granules (InterOss bone granules; SigmaGraft Inc. Biomaterials, Fullerton, CA) were also separately used. The inter-muscle was closed with resorbable sutures. The exterior wound was then sutured closed using a nylon suture. Subcutaneous buprenorphine (0.05-0.1 mg/kg) was then administered directly after the operation and was repeated every 12 hours for the next 3 days post-surgery. Fracture healing was assessed using micro-CT (Scanco Medical Ag or PerkinElmer). The anesthetized animal was scanned for two minutes with the PerkinElmer Quantum FX micro-CT at high resolution with a voxel size of 10 μM at 90 kV and 88 uA and an Al 0.5 mm+Cu 0.06 mm filter. The scanning detector rate was 117 fps. The images were analyzed in ImageJ using the BoneJ package. Morphometric parameters were quantified in an ROI that included just the fracture callus. Trabecular thickness (Tb.Th.), trabecular spacing (Tb. Sp.), total volume (TV), and volume of calcified callus (BV) were calculated. Statistical analysis was performed using a one-way analysis of variance (ANOVA) and a Dunnett's post-hoc analysis with significance reported at the P value of 0.05. All animal experiments were performed in accordance with protocols approved by Purdue University's Institutional Animal Care and Use Committee (IACUC). Rats were scanned in AMI after being anesthetized with isoflurane.
molecule,measurement,setting,value
B1,change of bone graft granules on micro-CT,"bone graft matrix, eight weeks",the granules resorb
same,spinal fusion (manual palpitation),"bone graft matrix, eight weeks, SEQ ID NO: 2 33 nmol/kg twice a week, rhBMP-2 10 μg",no fusion
same,spinal fusion (micro-CT),"mineralized collagen scaffold, eight weeks of treatment",none of the treatments had fused
same,mineralization of the scaffolds (micro-CT),"mineralized collagen scaffold, five weeks of treatment, preliminary results",increased the mineralization of the scaffolds more than BMP2 or saline
same,"spinal fusion (micro-CT, manual palpitation)","eight weeks, SEQ ID NO: 2 33 nmol/kg twice a week",Fusion was confirmed
same,"spinal fusion (micro-CT, manual palpitation)","eight weeks, SEQ ID NO: 2 33 nmol/kg twice a week, listed as SEQ ID NO.: 2",fused
